B1: AB0023: mouse monoclonal antibody directed against LOXL2; heavy and light chain variable regions SEQ ID NO:1 and 2 (antibody, listed as Mus musculus, V domains shown)
VH: MEWSRVFIFLLSVTAGVHSQVQLQQSGAELVRPGTSVKVSCKASGYAFTYYLIEWVKQRPGQGLEWIGVINPGSGGTNYNEKFKGKATLTADKSSSTAYMQLSSLTSDDSAVYFCARNWMNFDYWGQGTTLTVSS
VL: MRCLAEFLGLLVLWIPGAIGDIVMTQAAPSVSVTPGESVSISCRSSKSLLHSNGNTYLYWFLQRPGQSPQFLIYRMSNLASGVPDRFSGSGSGTAFTLRISRVEAEDVGVYYCMQHLEYPYTFGGGTKLEIK

Assays:
SKOV3-derived tumors [1] = experiment: SKOV3 xenograft, tumor hypoxia by carbonic anhydrase IX (CA9) levels; assay type: in vivo, mice; conditions: vs vehicle
Protocol: (§1) SKOV3 ovarian carcinoma cells were obtained from ATCC, Manassas, Va. 5×10^6 cells, suspended in 50% (v/v) Matrigel, were implanted subcutaneously in female athymic nude mice. After tumors attained a volume of 100 mm^3, the mice received twice weekly intra-peritoneal injections of vehicle, anti-LOXL2 antibody AB0023 (15 mg/kg), taxol (5 mg/kg) or a combination of taxol and AB0023. The experiment was terminated when tumors from control (vehicle-treated) animals attained an average volume of 1,000 mm^3, at which point the animals were sacrificed, tumors were removed and snap-frozen, and 5 μm thick frozen sections were prepared from the frozen tumors.
Sections were fixed with 4% paraformaldehyde and blocked using Peroxidazed 1 and Background Sniper (Biocare Medical, Concord, Calif.) before incubation with primary antibody. Anti-CA9 antibody (Abcam) was applied and Mach2 HRP-polymer (Biocare Medical) was used as secondary antibody. All sections were dehydrated through a series of ethanol dilutions and xylene, mounted using a resinous medium, and visualized using DAB chromogen.
Mice with SKOV3-derived tumors, as described in Example 4, were treated with AB0023 and/or taxol; and the effects on levels of carbonic anhydrase IX (CA9), a marker of hypoxia, were determined. […] Thus, inhibition of LOXL2 reduces vessel density and reduces hypoxia in tumors.

[2] = system: SKOV3 ovarian carcinoma cells; experiment: SKOV3 tumor xenograft, tumor growth; assay type: in vivo, mice; conditions: twice weekly i.p., AB0023 15 mg/kg, taxol 5 mg/kg, monitored 40 days, vs vehicle controls
Protocol: as §1
Female athymic nude mice were implanted with SKOV3 ovarian carcinoma cells which, when transplanted, form highly vascularized subcutaneous tumors. Expression of LOXL2 in these tumors was confirmed by immunohistochemistry; it was noted that most of the LOXL2 immunostaining was associated with vascular structures. When the average tumor volume of the population reached 100 mm^3, the mice were treated twice weekly with intra-peritoneal injections of the anti-LOXL2 antibody AB0023 (15 mg/kg), taxol (5 mg/kg) or a combination of AB0023 and taxol at the concentrations given above. Control mice received injection of vehicle (PBST). Tumor growth was monitored for 40 days.

SKOV3-derived tumors [3] = experiment: SKOV3 xenograft, tumor vessel number by CD31 immunoreactivity; assay type: in vivo, mice; conditions: vs vehicle-treated animals; p<0.01
Protocol: as §1
(§2) For assessment of perfusion, the animals were injected intravenously with Hoechst 33342 (40 mg/kg) one minute prior to sacrifice and tumor removal was performed as described by Franco et al. (2006) Cancer Res. 66:3639-3648 and Rijken et al. (2000) Int. […] Bound anti-CD31 was detected with a goat anti-rat CY3-labeled antibody (Jackson Laboratories, Bar Harbor, Me.) and bound NG2 antibodies were detected with a Cy2-labeled anti-rabbit antibody (Jackson Laboratories, Bar Harbor, Me.). The stained sections were visualized using a confocal microscope or a Leica CTR 6000 microscope, and at least five microscopic fields were analyzed in each section. For analysis of perfusion, the coincidence of CD31-staining and Hoechst dye fluorescence was assessed. […]

[4] = system: bFGF-induced angiogenesis; experiment: Matrigel plug assay, flow cytometric analysis; assay type: in vivo, mice; conditions: plugs harvested 7 days after implantation, vs vehicle
Protocol: The anti-angiogenic effects of systemic AB0023 administration in the Matrigel plug assay system were also assessed using flow cytometry to assay for cells expressing CD31, and for CD45-negative cells that express the vascular endothelial growth factor receptor VEGFR2 (an angiogenic marker). Analysis was conducted according to the method described by Adini et al. (2009) J. Immunol. Meth. 342:78-81.

[5] = system: human umbilical vein endothelial cells (HUVEC); experiment: Tube formation on Matrigel by HUVEC; assay type: cell-based; conditions: antibody 1 ug/ml, compared to control antibody AC-1; bFGF 5 ng/ml, 24 hours
From the text: (§3) HUVEC were isolated from umbilical veins and cultured as described. Gospodarowicz et al. (1983) J. Cell Biol. 97:1677-1685; Kigel et al. (2008) PLoS One 3:e3278. Recombinant human bFGF was produced and purified according to Tessler et al. (1990) J. Cell. Physiol. 145:310-317. For inhibition of LOXL2 expression by shRNA, lentiviruses directing expression of a LOXL2-targeted shRNA and a control shRNA were generated and used to infect HUVEC as described. Brekhman et al. (2009) BMC Cancer 9:415. The anti-LOXL2 monoclonal antibody (AB0023) has been described. See, e.g., Rodriguez et al. (2010) J. Biol. Chem. 285:20964-20974 and United States Patent Application Publication No. 2009/0053224 (Feb. 26, 2009).
Tube formation on Matrigel was carried out as described. Varshaysky et al. (2008) Cancer Res. 68:6922-2931. For shRNA inhibition HUVEC, infected with either shLOXL2-encoding or control lentivirus, were seeded in Matrigel-coated 48 well tissue culture plates (1.6×10^4 cells/well) and incubated with growth medium supplemented with bFGF (5 ng/ml) for 24 hours. […] Phase-contrast images were photographed at 63× magnification and bifurcations-per-field of tube structures in microscopic fields were quantified by manual counting.

[6] = system: human umbilical vein endothelial cells (HUVEC); experiment: bFGF-induced HUVEC migration assay (transwell); assay type: cell-based; conditions: antibody 10 μg/ml, compared to control antibody AC-1; 5 hours
Protocol: To determine whether LOXL2 activity contributes to bFGF-induced migration of human umbilical vein endothelial cells (HUVEC), experiments were conducted in which expression of LOXL2 was inhibited using a LOXL2-targeted shRNA, and LOXL2 activity was inhibited using an anti-LOXL2 antibody.
as §3
For migration assays, HUVEC were seeded in transwell culture dishes (8 μm pores, 3×10^4 cells/well) coated with fibronectin (10 μg/ml, Biological Industries) in 200 μl of M199 medium containing 20% fetal calf serum. […] After 5 hours, cells that had migrated were fixed for 20 minutes with 4% paraformaldehyde, washed three times with PBS, stained with 0.05% crystal violet for 10 minutes, photographed, and counted.

SKOV3-derived tumors [7] = experiment: SKOV3 xenograft, tumor perfusion by Hoechst 33342 / CD31 coincidence; assay type: in vivo; conditions: Hoechst 33342 40 mg/kg i.v. one minute before sacrifice; vs control mice; p<0.05
Protocol: as §1, §2

SKOV3-derived tumors [8] = experiment: SKOV3 xenograft, pericytes by NG2 and CD31 staining; assay type: in vivo, mice; conditions: vs vehicle
Protocol: as §1, §2

[9] = system: bFGF-induced angiogenesis; experiment: Matrigel plug assay, vessel counting and immunohistochemistry; assay type: in vivo, mice
Protocol: To determine if inhibition of LOXL2 could modulate angiogenesis in vivo, we examined the effects of the anti-LOXL2 antibody AB0023 on bFGF-induced angiogenesis, using a Matrigel plug assay. Kessler et al. (2004) Cancer Res. 64:1008-1015; Kibbey et al. (1992) J. Natl. Cancer Inst. 84:1633-1638.
For these experiments, either AB0023, at a concentration of 30 mg/kg, or vehicle (PBS+0.01% Tween-20) were injected intraperitoneally (30 mg/kg or equivalent volume) twice weekly into athymic female Ncr:Nu/Nu mice. After one week the mice were injected subcutaneously with 250 or 500 μl Matrigel (BD Biosciences, San Jose, Calif.) supplemented with 100 ng/ml human bFGF (Peprotech, Rocky Hill, N.J.) and 40 or 60 U heparin (Sigma, St. Louis, Mo.). Matrigel plugs were harvested after 10 days, excised together with attached skin, fixed in 10% neutral buffered formalin, and embedded in paraffin. Immunohistochemical analysis was performed on 5 μm serial sections with anti-CD31, anti-CD34, and anti-NG2 antibodies. 2 step sections separated by […] were analyzed per plug. Three representative 10× microscopic fields were selected per section per step, for a total of 6 fields per plug.
Immunohistochemical analysis was performed with anti-CD34 antibody on one representative section from each plug. Three representative 10× fields were selected per section for quantitation. For all IHC analysis of plugs, the mean area of signal was determined for each treatment group using Metamorph software (Molecular Devices).

[10] = independent experiment, vs vehicle

Row | Molecule | effect on CA9 levels in tumors (SKOV3-derived tumors [1]; taxol 5 mg/kg twice weekly i.p.) | tumor growth (increase in tumor volume) [2] | CD31 immunoreactivity in tumors (concentration of tumor-associated blood vessels) (SKOV3-derived tumors [3]) | number of CD31+ cells in plugs (flow cytometry) [4] | number of VEGFR-2+/CD45- endothelial cells in plugs (flow cytometry) [4] | tube formation on Matrigel [5] | bFGF-induced cell migration of HUVEC [6] | tumor perfusion (Hoechst staining associated with CD31-positive vessels) (SKOV3-derived tumors [7]) | reduction in CA9 levels in tumors (SKOV3-derived tumors [1]; AB0023 15 mg/kg twice weekly i.p., p<0.05) [%] | total number of NG2-expressing cells in tumors (SKOV3-derived tumors [8]) | concentration of vessel-associated pericytes in tumors (correspondence of CD31 and NG2 staining) (SKOV3-derived tumors [8]; p<0.01) | number of blood vessels in Matrigel plugs (whole plug vessel counting) ([9]; 30 mg/kg i.p. twice weekly, athymic Ncr:Nu/Nu mice, plugs after 10 days, vs vehicle) | CD31 levels in Matrigel plug sections ([9]; 30 mg/kg i.p. twice weekly, plugs after 10 days, vs vehicle) | CD34 immunoreactivity in implanted plugs ([9]; further study, vs vehicle and control antibody AC-1) | staining for CD34 in Matrigel plugs [9, 10] | staining for pericyte marker NG2 in Matrigel plugs [9, 10]
1 | CC(=O)O[C@H]1C(=O)[C@@]2(C)[C@H]([C@H](OC(=O)c3ccccc3)[C@]3(O)C[C@H](OC(=O)[C@H](O)[C@@H](NC(=O)c4ccccc4)c4ccccc4)C(C)=C1C3(C)C)[C@]1(OC(C)=O)CO[C@@H]1C[C@@H]2O [taxol, paclitaxel, reference compound] | did not have a statistically significant effect | small, statistically insignificant inhibition |  |  |  |  |  |  |  |  |  |  |  |  |  | 
2 | B1 |  | did not inhibit tumor growth | statistically significant decrease | significantly reduced | significantly reduced | inhibited | inhibited | better perfusion | 66 | not significantly changed | significantly increase | significant reduction | reduced | loss of CD34 immunoreactivity | significant reduction | significant reduction

— patent publication US20140186340A1, “Methods and Compositions for Normalization of Tumor Vasculature by Inhibition of LOXL2” (GILEAD BIOLOGICS, INC., priority 2011, published 2014)
